We go through one substance from PMC2770460.

The target in the test is recombinant full-length mammalian Tpr (6xHis-Tpr) (not stated (mammalian)) (UniProt P12270). In words: ELISA; solid phase binding assay: Maxisorp microtiter plates coated with 25 ng of Tpr or C-Tpr; increasing concentrations of the soluble protein; bound protein detected with primary antibodies and horseradish peroxidase-conjugated secondary antibodies (TMB); apparent Kd from B = Bmax x Y/(Kd + Y); CRM1, NES and RanGTP at equimolar concentrations. A general note: In an ELISA, binding on a coated surface is turned into a signal by an enzyme label.
recombinant full-length mammalian Tpr (6xHis-Tpr) (not stated (mammalian)), sequence (P12270 whole entry): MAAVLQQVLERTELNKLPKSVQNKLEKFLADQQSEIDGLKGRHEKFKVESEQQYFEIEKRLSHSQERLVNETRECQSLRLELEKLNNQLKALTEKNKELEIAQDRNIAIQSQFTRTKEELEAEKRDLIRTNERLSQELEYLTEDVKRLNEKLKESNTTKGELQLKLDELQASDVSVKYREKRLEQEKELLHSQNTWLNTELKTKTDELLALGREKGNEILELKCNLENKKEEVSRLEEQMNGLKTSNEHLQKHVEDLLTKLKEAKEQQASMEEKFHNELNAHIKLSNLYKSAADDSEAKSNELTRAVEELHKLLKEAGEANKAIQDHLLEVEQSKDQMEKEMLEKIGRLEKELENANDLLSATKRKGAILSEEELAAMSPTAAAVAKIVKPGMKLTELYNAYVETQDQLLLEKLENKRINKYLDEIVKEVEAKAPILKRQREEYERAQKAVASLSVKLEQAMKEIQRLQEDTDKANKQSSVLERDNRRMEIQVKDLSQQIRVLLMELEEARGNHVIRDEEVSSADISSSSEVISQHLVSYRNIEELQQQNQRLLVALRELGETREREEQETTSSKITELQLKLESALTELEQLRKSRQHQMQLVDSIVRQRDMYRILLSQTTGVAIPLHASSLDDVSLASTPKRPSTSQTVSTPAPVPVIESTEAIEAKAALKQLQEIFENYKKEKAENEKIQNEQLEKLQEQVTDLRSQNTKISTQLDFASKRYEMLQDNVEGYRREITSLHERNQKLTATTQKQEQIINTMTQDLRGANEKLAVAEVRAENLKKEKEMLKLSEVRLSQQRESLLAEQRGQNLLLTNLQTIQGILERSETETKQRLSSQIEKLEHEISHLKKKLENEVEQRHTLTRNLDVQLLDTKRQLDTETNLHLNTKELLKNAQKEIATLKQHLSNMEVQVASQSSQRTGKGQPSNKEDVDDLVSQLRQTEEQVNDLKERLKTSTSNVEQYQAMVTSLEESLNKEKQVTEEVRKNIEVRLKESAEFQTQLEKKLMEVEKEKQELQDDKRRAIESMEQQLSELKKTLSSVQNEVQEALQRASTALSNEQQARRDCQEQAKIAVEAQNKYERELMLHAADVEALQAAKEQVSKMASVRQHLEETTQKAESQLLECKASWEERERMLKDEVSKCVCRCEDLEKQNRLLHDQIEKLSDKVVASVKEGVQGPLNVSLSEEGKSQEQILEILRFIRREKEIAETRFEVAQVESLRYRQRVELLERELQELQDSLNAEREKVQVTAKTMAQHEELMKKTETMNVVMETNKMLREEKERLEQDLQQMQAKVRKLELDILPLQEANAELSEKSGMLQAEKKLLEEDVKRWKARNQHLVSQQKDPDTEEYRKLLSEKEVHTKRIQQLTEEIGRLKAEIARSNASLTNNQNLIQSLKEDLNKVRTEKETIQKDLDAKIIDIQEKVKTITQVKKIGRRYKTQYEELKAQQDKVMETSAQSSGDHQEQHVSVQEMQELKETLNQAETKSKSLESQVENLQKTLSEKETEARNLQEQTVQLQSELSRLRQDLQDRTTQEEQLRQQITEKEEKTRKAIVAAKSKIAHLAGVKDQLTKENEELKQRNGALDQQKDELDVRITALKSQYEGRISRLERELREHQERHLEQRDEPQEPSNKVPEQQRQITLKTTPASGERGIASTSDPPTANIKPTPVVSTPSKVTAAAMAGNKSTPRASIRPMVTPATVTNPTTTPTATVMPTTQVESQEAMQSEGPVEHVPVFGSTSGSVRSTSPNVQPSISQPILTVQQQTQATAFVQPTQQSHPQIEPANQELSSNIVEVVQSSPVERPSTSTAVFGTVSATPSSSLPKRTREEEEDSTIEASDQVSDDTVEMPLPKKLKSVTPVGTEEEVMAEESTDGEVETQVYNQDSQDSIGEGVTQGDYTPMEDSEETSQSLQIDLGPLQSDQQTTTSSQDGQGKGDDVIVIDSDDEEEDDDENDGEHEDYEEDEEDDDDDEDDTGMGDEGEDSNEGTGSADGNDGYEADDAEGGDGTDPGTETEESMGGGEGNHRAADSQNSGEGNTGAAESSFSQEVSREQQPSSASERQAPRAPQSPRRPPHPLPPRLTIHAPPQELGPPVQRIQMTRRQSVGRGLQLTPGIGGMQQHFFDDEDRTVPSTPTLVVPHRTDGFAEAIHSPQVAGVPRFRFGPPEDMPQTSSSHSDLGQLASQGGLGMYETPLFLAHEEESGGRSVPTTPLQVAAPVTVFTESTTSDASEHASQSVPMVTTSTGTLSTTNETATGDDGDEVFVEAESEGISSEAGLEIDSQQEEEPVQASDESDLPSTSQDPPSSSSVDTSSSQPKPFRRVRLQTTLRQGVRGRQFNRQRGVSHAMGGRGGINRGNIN

Take “His-importin α (from UniProt P52292 1-529) (natural protein)”: the Kd worked out at 0.0215 µM.
